In patent US20220143148A1, “COMPOSITIONS AND METHODS FOR MODULATING CGRP SIGNALING TO REGULATE INTESTINAL INNATE LYMPHOID CELLS” (The Broad Institute, Inc., priority 2019, published 2022):

Tested on: small intestinal immune cells
Assay: Droplet-based scRNA-seq of small intestinal immune cells (LP and PP), OVA vs PBS, clustering and differential expression
Type: in vivo, mouse
Conditions: cluster ID 5, PP
From the text: To comprehensively characterize small intestinal immune cells, Applicants generated scRNA-Seq profiles for 58,067 immune cells collected from lamina propria (LP) and Peyer's patch (PP) regions at steady state and after induction of a type 2 inflammatory reaction to ovalbumin (OVA) (Brandt et al., 2003) (FIGS. 1A and 8A). To ensure sufficient representation of rare cells, Applicants combined a normalization strategy—removing by flow sorting either a portion of IgD+ naïve B cells, which are the most abundant cell type in PPs, or all CD19+ and CD3+ T cells (FIG. 8B, Methods)—with profiling of a sufficiently large number of cells number (P>0.99 to recover at least 15 cells from each cluster, Methods) by massively parallel scRNA-seq (Haber et al., 2017) (Methods). Applicants obtained 36,797 and 21,270 high quality cells passing initial filtering (Methods) from PP and LP regions, respectively.
Overall, Applicants annotated 27 cell subsets across the two compartments, spanning T cells, B cells, ILCs, dendritic cells (DCs), myeloid cells and stromal cells, in frequencies ranging from 0.07% to 14%. Briefly, Applicants first partitioned the cells from the PP regions by unsupervised clustering (Methods) into 46 clusters, retained the 97% of cells that were robustly assigned cell identities in each cluster (Methods), assigned the cells from the LP regions to the 46 clusters using a classifier (Methods), and visualized the data with scvis (Ding et al., 2018), a deep generative model-based method (FIGS. 1B and 8C, Methods). Next, Applicants identified genes that were differentially expressed between the cells in each cluster and the remaining cells (Table 1, Methods), as well as between pairs of clusters (Table 2), to elucidate identities of similar cell types/states. Applicants excluded from downstream analysis clusters mostly consisting of contaminants from epithelium, likely doublets, or cells with a small number of Unique Molecular Identifiers (UMIs) (FIGS. 1C and 8D), or lacking distinct markers (Methods). Altogether, Applicants retained 27 clusters spanning 85% of the cells and each associated with distinct marker genes (FIG. 8E, Methods).
To induce allergic reaction to OVA, 6 to 7 weeks old mice were sensitized twice, two weeks apart, with 50 μg of OVA plus 1 mg of aluminum potassium sulfate adjuvant via intraperitoneal injection. Two weeks later, mice were orally administered with 50 mg of OVA on every other day for a total of five times. 1 μg of α-CGRP peptide was administered simultaneously when indicated. Mice were deprived of food for 3-4 hours in cages with wood chip bedding for limiting antigen degradation in the stomach before each intragastric challenge.
Isolation of cells from Peyer's patches (PPs). Peyer's patches (PPs) were carefully dissected from the small intestine under a stereo microscope using a fine scissor, pierced once with a fine forcep. Tissues were digested in freshly made digestion buffer (RPMI-1640 containing 100 μg/ml Liberase™ and 50 μg/ml DNase I at 37° C. on a roto-mixer. After 15 min, tissues were very gently mixed using a 1 ml pipette. The supernatant was collected and added to ice-cold MACS buffer (pH 7.4; PBS plus 2% FCS and 2 mM EDTA). Pre-warmed (37° C.) fresh digestion buffer was added to the remaining tissues. After rotation at 37° C. for 15 min, the mixture was vigorously mixed using a 1 ml pipette for 1 min. Supernatants from the two steps were combined and passed through 70 μm filters and stained for FACS (below).
Isolation of cells from the lamina propria (LP). The small intestines were opened longitudinally and washed in ice-cold PBS. For scRNA-seq, roughly 0.5 cm of fragments from each of the distal, middle and proximal regions without visible PPs were collected. Epithelial cells were dissociated by tissue rotation in pre-warmed (37° C.) PBS containing 10 mM EDTA at 37° C. for 15 min, followed by additional incubation on ice for 15 min. Tissues were then shaken vigorously. […]

B1: OVA (protein, UniProt P01012 2-386, looked up)
Ovalbumin: GSIGAASMEFCFDVFKELKVHHANENIFYCPIAIMSALAMVYLGAKDSTRTQINKVVRFDKLPGFGDSIEAQCGTSVNVHSSLRDILNQITKPNDVYSFSLASRLYAEERYPILPEYLQCVKELYRGGLEPINFQTAADQARELINSWVESQTNGIIRNVLQPSSVDSQTAMVLVNAIVFKGLWEKAFKDEDTQAMPFRVTEQESKPVQMMYQIGLFRVASMASEKMKILELPFASGTMSMLVLLPDEVSGLEQLESIINFEKLTEWTSSNVMEERKIKVYLPRMKMEEKYNLTSVLMAMGITDVFSSSANLSGISSAESLKISQAVHAAHAEINEAGREVVGSAEAGVDAASVSEEFRADHPFLFCIKHIATNAVLFFGRCVSP
Calm1: percentage of expressing cells in OVA-treated group: 0.868
Cd74: percentage of expressing cells in OVA-treated group: 0.501
Crlf3: percentage of expressing cells in OVA-treated group: 0.569
Ctsc: percentage of expressing cells in OVA-treated group: 0.268
Ddit4: percentage of expressing cells in OVA-treated group: 0.369
Dnaja1: percentage of expressing cells in OVA-treated group: 0.591
Dnajb1: percentage of expressing cells in OVA-treated group: 0.206
Dusp1: percentage of expressing cells in OVA-treated group: 0.206
DynIl1: percentage of expressing cells in OVA-treated group: 0.7
Gramd3: percentage of expressing cells in OVA-treated group: 0.475
Hspa8: percentage of expressing cells in OVA-treated group: 0.977
Ier2: percentage of expressing cells in OVA-treated group: 0.428
Ifngr1: percentage of expressing cells in OVA-treated group: 0.563
Igha: percentage of expressing cells in OVA-treated group: 0.197
Il7r: percentage of expressing cells in OVA-treated group: 0.48
Ilk: percentage of expressing cells in OVA-treated group: 0.2
Jund: percentage of expressing cells in OVA-treated group: 0.654
Klf6: percentage of expressing cells in OVA-treated group: 0.368
Klhl6: percentage of expressing cells in OVA-treated group: 0.332
Lfng: percentage of expressing cells in OVA-treated group: 0.333
Ltb: percentage of expressing cells in OVA-treated group: 0.865
Pdcd4: percentage of expressing cells in OVA-treated group: 0.66
Pik3ip1: percentage of expressing cells in OVA-treated group: 0.556
Ppp1r15a: percentage of expressing cells in OVA-treated group: 0.219
Ppp2ca: percentage of expressing cells in OVA-treated group: 0.277
Ppp3cc: percentage of expressing cells in OVA-treated group: 0.152
Racgap1: percentage of expressing cells in OVA-treated group: 0.21
Rnaset2a: percentage of expressing cells in OVA-treated group: 0.709
Sfpq: percentage of expressing cells in OVA-treated group: 0.284
Slc9a3r1: percentage of expressing cells in OVA-treated group: 0.428
Tdrp: percentage of expressing cells in OVA-treated group: 0.228
Tpm3: percentage of expressing cells in OVA-treated group: 0.665
Tsc22d3: percentage of expressing cells in OVA-treated group: 0.84
Tuba1a: percentage of expressing cells in OVA-treated group: 0.302
Txnip: percentage of expressing cells in OVA-treated group: 0.605
Uba52: percentage of expressing cells in OVA-treated group: 0.984
Ucp2: percentage of expressing cells in OVA-treated group: 0.773
Wdr89: percentage of expressing cells in OVA-treated group: 0.996
Zfp36l2: percentage of expressing cells in OVA-treated group: 0.617
1810037l17Rik: LN (average fold change) (OVA vs PBS): −0.158
Bcl2: LN (average fold change) (OVA vs PBS): 0.658
Calm1: LN (average fold change) (OVA vs PBS): −0.192
Cd74: LN (average fold change) (OVA vs PBS): −0.211
Crlf3: LN (average fold change) (OVA vs PBS): 0.370
Ctsc: LN (average fold change) (OVA vs PBS): 0.402
Ddit4: LN (average fold change) (OVA vs PBS): 0.426
Dnaja1: LN (average fold change) (OVA vs PBS): −0.416
Dnajb1: LN (average fold change) (OVA vs PBS): −0.867
Dusp1: LN (average fold change) (OVA vs PBS): −0.321
DynIl1: LN (average fold change) (OVA vs PBS): −0.370
Gramd3: LN (average fold change) (OVA vs PBS): 0.481
Hspa8: LN (average fold change) (OVA vs PBS): −0.255
Ier2: LN (average fold change) (OVA vs PBS): −0.174
Ifngr1: LN (average fold change) (OVA vs PBS): 0.536
Igha: LN (average fold change) (OVA vs PBS): 0.503
Il7r: LN (average fold change) (OVA vs PBS): 0.612
Ilk: LN (average fold change) (OVA vs PBS): 0.159
Jund: LN (average fold change) (OVA vs PBS): −0.319
Klf6: LN (average fold change) (OVA vs PBS): −0.374
Klhl6: LN (average fold change) (OVA vs PBS): 0.485
Lfng: LN (average fold change) (OVA vs PBS): −0.281
Ltb: LN (average fold change) (OVA vs PBS): −0.238
Pdcd4: LN (average fold change) (OVA vs PBS): 0.394
Pik3ip1: LN (average fold change) (OVA vs PBS): 0.361
Ppp1r15a: LN (average fold change) (OVA vs PBS): −0.287
Ppp2ca: LN (average fold change) (OVA vs PBS): −0.469
Ppp3cc: LN (average fold change) (OVA vs PBS): 0.621
Racgap1: LN (average fold change) (OVA vs PBS): 0.436
Rnaset2a: LN (average fold change) (OVA vs PBS): 0.225
Sfpq: LN (average fold change) (OVA vs PBS): −0.373
Slc9a3r1: LN (average fold change) (OVA vs PBS): −0.256
Tdrp: LN (average fold change) (OVA vs PBS): −0.354
Tpm3: LN (average fold change) (OVA vs PBS): 0.282
Tsc22d3: LN (average fold change) (OVA vs PBS): 0.772
Tuba1a: LN (average fold change) (OVA vs PBS): −0.250
